This is an account of results in PMC7840946 (2021).

Substitutions are numbered along the chain they refer to. Where two headings read alike, the source gives them in different places.

The target of assay [1] is T1, PstS1 (Rv0934), recombinant, wild type (Mycobacterium tuberculosis, UniProt P9WGU1). Description: SPR. Background: SPR reads the build-up and loss of mass on a sensor chip optically.
Assay [2] deals with T1, PstS1 (Rv0934), recombinant, wild type. The assay can be described thus: SPR. The source holds these as a separate data set.

T1 sequence (P9WGU1 25-374): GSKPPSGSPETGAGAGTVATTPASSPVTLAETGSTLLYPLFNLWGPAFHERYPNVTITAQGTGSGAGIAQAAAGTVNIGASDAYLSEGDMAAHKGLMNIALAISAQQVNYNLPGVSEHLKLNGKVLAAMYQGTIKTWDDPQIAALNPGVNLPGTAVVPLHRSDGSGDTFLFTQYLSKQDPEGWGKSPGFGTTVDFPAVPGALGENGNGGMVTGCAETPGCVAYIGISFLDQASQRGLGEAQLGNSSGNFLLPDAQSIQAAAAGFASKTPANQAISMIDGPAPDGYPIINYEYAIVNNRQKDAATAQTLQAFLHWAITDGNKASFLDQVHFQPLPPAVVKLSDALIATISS

B1: p4-36gl, predicted germline version of mAb p4-36 (antibody, V domains shown)
VH: EVQLVESGGGLVQPGRSLRLSCTASGFTFGDYAMSWVRQAPGKGLEWVGFIRSKAYGGTTEYAASVKGRFTISRDDSKSIAYLQMNSLKTEDTAVYYCTGPRPYYDSSGYYPYYFDYWGQGTLVTVSS
VL: QSALTQPRSVSGSPGQSVTISCTGTSSDVGGYNYVSWYQQHPGKAPKLMIYDVSKRPSGVPDRFSGSKSGNTASLTISGLQAEDEADYYCCSYAGSYTYVVFGGGTKLTVL
For the molecule B1, the Kd in assay [1] turned out to be 6.85 nM.

B2: mAb p4-163 (human IgG1) (antibody, V domains shown)
VH: EVQLVESGGGLVKPGGSLRLSCAASGFTFESHRMHWVRQAPGKGLEWVSSIISSRTYIYYADSVKGRFTISRDNSRNSLFLQMNSLRAEDTAVYYCARGDYYYDGVASDPHFDNWGQGTLVTVSS
VL: QSVLTQPPSASGTPGQRVTISCSGGRSNIGSNYVYWFQQLPGTAPQLLIYRNIQRPSGVPARFSGSKSGTSASLAISGLRSEDEADYYCATWDDSLSGVVFGGGTKVTVL
As for B2, the Kd in assay [2] turned out to be 4.45 nM.

B3: mAb p4-170 (human IgG1) (antibody, V domains shown)
VH: B2 VH with E30S, R76G, A88V
VL: B2 VL with P7T, G25S, L40F, T43A, G69D, D86H, T91A
With B3, the Kd in assay [2] came to 1.34 nM.

One may read the Kd as the equilibrium constant for the complex coming apart.
